The labels stand for the following.
B1: proteasome-activating nucleotidase (PAN) from Archaeoglobus fulgidus (enzyme, UniProt O28303 1-398, looked up)
chain: MGDSEIQYLLEKLKKLEEDYYKLRELYRRLEDEKKFIESERIRYEREVRRLRSEVERLRSPPLLVGVVSDILEDGRVVVKSSTGPKFVVNTSQYINEEELKPGARVALNQQTLAIVNVLPTSKDPMVYGFEVEEKPEVSYEDIGGLDVQIEEIREAVELPLLKPELFAEVGIEPPKGVLLYGPPGTGKTLLAKAVANQTRATFIRVVGSEFVQKYIGEGARLVREVFQLAKEKAPSIIFIDELDAIAARRTNSDTSGDREVQRTMMQLLAELDGFDPRGDVKVIGATNRIDILDPAILRPGRFDRIIEVPLPTFEGRIQIFKIHTRKMKLAEDVDFKELARITEGASGADIKAICTEAGMFAIREERAKVTMLDFTKAIEKVLKKTTPIPDLKGVMFV
B2: CP α-subunit from Archaeoglobus fulgidus (natural protein, UniProt O29760 1-246, looked up)
chain: MHLPQMGYDRAITVFSPDGRLFQVEYAREAVKRGATAIGIKCKEGVILIADKRVGSKLLEADTIEKIYKIDEHICAATSGLVADARVLIDRARIEAQINRLTYDEPITVKELAKKICDFKQQYTQYGGVRPFGVSLLIAGVDEVPKLYETDPSGALLEYKATAIGMGRNAVTEFFEKEYRDDLSFDDAMVLGLVAMGLSIESELVPENIEVGYVKVDDRTFKEVSPEELKPYVERANERIRELLKK

What all share (assay): cryo-EM structure
Data set [1] concerns the molecule itself.
Data set [2] deals with B1.
Data set [3] deals with the molecule itself. This is another data set of the same source.
Data set [4] deals with B2.

Take B1: the stoichiometry N (usually a count of units in the complex or per binding partner) in data set [1] came out at 6.
As for B2, in data set [2], the binding result was “binds”.

B3: CP β-subunit from Archaeoglobus fulgidus (natural protein, UniProt Q9P996 12-213, looked up)
chain: TTTVGLVCKDGVVMATEKRATMGNFIASKAAKKIYQIADRMAMTTAGSVGDAQFLARIIKIEANLYEIRRERKPTVRAIATLTSNLLNSYRYFPYLVQLLIGGIDSEGKSIYSIDPIGGAIEEKDIVATGSGSLTAYGVLEDRFTPEIGVDEAVELAVRAIYSAMKRDSASGDGIDVVKITEDEFYQYSPEEVEQILAKFRK
With B3, the binding result in data set [3] and in data set [4] was “binds” in each case.

The values are drawn from publication PMC6329974 (Proceedings of the National Academy of Sciences of the …, 2018).
